{"source": "paper PMC3464278", "about": "“Structural Characterization of the Complex of SecB and Metallothionein-Labeled proOmpA by Cryo-Electron Microscopy” (PLoS ONE, 2012)", "proteins": {"B1": {"name": "SecB (natural protein, E. coli)", "chain": "MSEQNNTEMTFQIQRIYTKDISFEAPNAPHVFQKDWQPEVKLDLDTASSQLADDVYEVVLRVTVTASLGEETAFLCEVQQGGIFSIAGIEGTQMAHCLGAYCPNILFPYARECITSMVSRGTFPQLNLAPVNFDALFMNYLQQQAGEGTEEHQ", "notes": "SecB, molecular chaperone of the Sec pathway, E. coli; also called molecular chaperon SecB; E. coli SecB; source: prepared as described previously [26]"}}, "target": "the molecule itself", "experiment": "cryo-EM structure; SecB/pOA1MTAu complex from gel filtration, vitrified on holey carbon grids, FEI Tecnai F20 at 200 kV; single particle analysis (EMAN), 19562 particles; about 20 Å; SecB crystal structure docked manually"}
{"protein": "B1", "values": [{"measurement": "binding result", "value": "binds"}]}
